Patent US20140212427A1 (University of Pennsylvania, published 2014)

B1: mAb 19.1 (antibody, V domains shown)
VH: QVQLKQSGPGLVQPSQSLSISCTVSGFSLTTYGVHWVRQSPGKGLEWLGVIWSGGDTDYNASFISRLRINKDTSKSQVFFKMNSLQADDTAYYCARNKDYYTNYDFTMDYWGQGTSVTVSS
VL: NIMMTQSPSSLAVSAGEKVTMSCKSSQSVLYSSNQKNFLAWYQQKPGQSPKLLIYWASTRESGVPDRFTGSGSGTDFILTINSVQVEDQAVYYCHQYLSSYTFGGGTKLEIK
notes: Mouse hybridoma monoclonal antibody from properdin knockout mice immunised with human properdin; kappa light chain
B2: chimeric 19.1 mAb (antibody, human IgG4 S228P, kappa, V domains shown)
VH: QVQLKQSGPGLVQPSQSLSISCTVSGFSLTTYGVHWVRQSPGKGLEWLGVIWSGGDTDYNASFISRLRINKDTSKSQVFFKMNSLQADDTAYYCARNKDYYTNYDFTMDYWGQGTSVTVSS
VL: NIMMTQSPSSLAVSAGEKVTMSCKSSQSVLYSSNQKNFLAWYQQKPGQSPKLLIYWASTRESGVPDRFTGSGSGTDFILTINSVQVEDQAVYYCHQYLSSYTFGGGTKLEIKT
B3: humanized 19.1 mAb with heavy chain variable region humanized 19.1 VH-4-59-01 (antibody, human IgG4 S228P, kappa, V domains shown)
VH: QVQLQESGPGLVKPSETLSLTCTVSGFSLTTYGVHWIRQPPGKGLEWIGVIWSGGDTDYNASFISRVTISVDTSKNQFSLKLSSVTAADTAVYYCARNKDYYTNYDFTMDYWGQGTTVTVSS
VL: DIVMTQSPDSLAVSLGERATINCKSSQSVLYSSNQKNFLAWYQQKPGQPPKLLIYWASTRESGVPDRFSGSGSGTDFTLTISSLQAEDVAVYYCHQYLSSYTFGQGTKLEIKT
B4: humanized 19.1 mAb with heavy chain variable region humanized 19.1 VH-3-66-04 (antibody, human IgG4 S228P, kappa, V domains shown)
VH: EVQLVESGGGLVQPGGSLRLSCAASGFSLTTYGVHWVRQAPGKGLEWVSVIWSGGDTDYNASFISRFTISRDNSKNTLYLQMNSLRAEDTAVYYCARNKDYYTNYDFTMDYWGQGTTVTVSS
VL: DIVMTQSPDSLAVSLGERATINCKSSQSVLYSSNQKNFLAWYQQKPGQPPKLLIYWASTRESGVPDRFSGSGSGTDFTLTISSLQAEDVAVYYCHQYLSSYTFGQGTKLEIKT
B5: mAb 25 (antibody, V domains shown)
VH: QVQLLQSGAEVMKPGASVTLSCKAIGYTFIDYWIEWIKQRPGHGLEWIGEIFPGSGTINHNEKFKDKASFSAHSSSNTAYMQLSRLTSEDSAIYYCAREGLDYWGQGTTLTVSS
VL: QIVLTQSPAIMSASPGERVTMTCSASSSVSYIYWYQQKSGTSPKRWIFDTSTLASGVPTRFSGSGSGTSYSLTISSMETEDAATYYCQQWSRNPFTFGSGTKLEIK
notes: Mouse hybridoma monoclonal antibody; also called anti-properdin mAb 25
B6: mAb 22.1 (antibody, V domains shown)
VH: QVQLKQSGPGLVQPSQSLSITCTVSGFSLTSYGVHWVRQSPGKGLEWLGVIWSGGSTDYNAAFISRLSISKDTSKSQVFFKMNSLQPDDTAIYYCARNKDFYSNYDYTMDYWGQGTSVTVSS
VL: NIMMTQSPSFLAVSAGEKVTLSCKSSQSVLYSSNQKNFLAWYQQKPGQSPKLLIYWASTRESGVPDRFTGSGSGTDFTLTISSVQAEDLAVYYCHQYLSSYTFGGGTKLEIK

Experiments:
[1] = molecular target: T1, human properdin deletion mutant dTSR5+6 (human, UniProt P27918 28-313); test: ELISA with CHO cell lysates of properdin deletion mutants (FIG. 6)
T1 construct: Human properdin with TSR5 and TSR6 deleted; CHO cell lysate; also called TSR0-4; TSR5+6 deletion mutant
Experimental: (§1) However, because dTSR5 has undergone proteolytic degradation leading to possible TSR6 removal (FIG. 5), it is likely that the epitope for mAb 25 is located in TSR6. HuP refers to full length human properdin transfection which is used as a positive control. Con refers to untransfected CHO cell lysate which is used as a negative control for lack of binding. All mutant proteins contained a 6×His tag at the C-terminus.
(§2) (see FIG. 6). ELISA plates were coated with 50 μl of 2 μg/ml of the concerned mAb overnight at 4° C. The plates were washed 3× with PBS-T and then 25 μg (in 50 μl PBS containing 1% BSA) CHO cell lysate proteins were added to the wells and the plates were incubated for 1 hour at room temperature. The plates were washed 3× with PBS-T and then captured protein was detected by biotinylated goat anti-human properdin antibody and HRP-avidin system.

[2] = molecular target: T2, human properdin mutant TSR0-4+½ TSR5 (human, UniProt P27918 28-345); test: sandwich ELISA with CHO cell lysates (FIG. 7)
T2 construct: Expressed in CHO cells, tested as lysate; expression confirmed by Western blot
Experimental: as §2
(§3) Three human properdin mutants comprising TSR0-4+¼ TSR5, TSR0-4+½ TSR5 or TSR0-4+¾ TSR5 were generated by conventional PCR. They were cloned into pCAGGS and expressed in CHO cells as described in Example 5. Protein expression was confirmed by Western analysis using goat anti-human properdin antibody. The blot was stripped and reprobed with a mouse anti-His tag antibody (Qiagen) to confirm that the C-terminal His Tag is present (no C-terminal proteolysis).

human properdin = human properdin (human, UniProt P27918 28-469); test: cell-based or functional assay
[3] = molecular target: T3, human properdin deletion mutant dTSR6 (human, UniProt P27918 28-377); test: ELISA with CHO cell lysates of properdin deletion mutants (FIG. 6)
T3 construct: CHO cell lysate; also called TSR0-5
Experimental: as §1, §2

[4] = molecular target: T4, human properdin mutant TSR0-5+¾ TSR6 (human, UniProt P27918 28-446); test: sandwich ELISA with CHO cell lysates (FIG. 8A)
T4 construct: Expressed in CHO cells, tested as lysate; expression confirmed by Western blot
Experimental: as §2
as §3, with “TSR0-5+¼ TSR6, TSR0-5+½ TSR6” for “TSR0-4+¼ TSR5, TSR0-4+½ TSR5”, “TSR0-5+¾ TSR6” for “TSR0-4+¾ TSR5”, “proteolysis). […] These are cysteine 62 (C62) and cysteine 78 (C78) of TSR6.” for “proteolysis).”

[5] = molecular target: T5, full-length human properdin with the double mutations C62A and C78A (TSR6) (human, UniProt P27918 28-469); test: ELISA with homogenates of transfected CHO cells (FIG. 8B)
T5 construct: Whether this mutant carries a 6×His tag is not clear; Homogenate of transfected CHO cells; also called C62A and C78A double mutant
T5 sequence (P27918 28-469 C439A/C455A limits assumed): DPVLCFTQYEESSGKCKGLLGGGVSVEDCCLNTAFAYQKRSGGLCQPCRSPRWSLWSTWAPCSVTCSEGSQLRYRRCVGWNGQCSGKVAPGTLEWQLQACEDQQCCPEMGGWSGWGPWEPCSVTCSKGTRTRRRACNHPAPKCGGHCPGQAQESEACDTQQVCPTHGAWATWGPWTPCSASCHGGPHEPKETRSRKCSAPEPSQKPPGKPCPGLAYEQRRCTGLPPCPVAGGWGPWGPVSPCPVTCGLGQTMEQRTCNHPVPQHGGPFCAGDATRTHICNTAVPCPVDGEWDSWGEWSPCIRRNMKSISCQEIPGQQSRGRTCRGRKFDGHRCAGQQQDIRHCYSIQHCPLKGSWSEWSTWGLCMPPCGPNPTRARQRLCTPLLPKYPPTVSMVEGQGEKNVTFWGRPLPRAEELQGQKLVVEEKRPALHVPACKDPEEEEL

Sequence of human properdin (P27918 28-469): as the sequence (P27918 28-469 C439A/C455A limits assumed) above, with A412C, A428C counted along it
T1 sequence (P27918 other isoform, or with tags, fused parts or gaps mutant limits assumed): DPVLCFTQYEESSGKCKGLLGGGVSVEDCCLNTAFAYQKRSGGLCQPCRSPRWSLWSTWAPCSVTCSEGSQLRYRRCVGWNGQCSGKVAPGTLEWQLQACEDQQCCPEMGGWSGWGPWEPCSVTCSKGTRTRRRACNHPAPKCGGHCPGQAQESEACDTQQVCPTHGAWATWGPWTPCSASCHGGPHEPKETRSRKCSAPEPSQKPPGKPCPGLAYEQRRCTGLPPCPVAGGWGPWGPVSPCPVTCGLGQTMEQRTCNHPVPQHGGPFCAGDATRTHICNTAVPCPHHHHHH
T2 sequence (P27918 other isoform, or with tags, fused parts or gaps mutant limits assumed): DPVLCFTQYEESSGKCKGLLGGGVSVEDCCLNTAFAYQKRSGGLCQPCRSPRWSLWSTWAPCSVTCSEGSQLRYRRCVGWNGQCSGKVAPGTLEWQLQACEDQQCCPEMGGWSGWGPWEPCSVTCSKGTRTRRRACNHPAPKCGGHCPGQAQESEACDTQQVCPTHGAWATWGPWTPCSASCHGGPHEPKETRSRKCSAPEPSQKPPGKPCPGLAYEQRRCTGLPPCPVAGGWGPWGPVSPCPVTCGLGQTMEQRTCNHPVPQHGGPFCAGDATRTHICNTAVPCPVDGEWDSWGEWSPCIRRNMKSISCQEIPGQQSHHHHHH
T4 sequence (P27918 other isoform, or with tags, fused parts or gaps mutant limits assumed): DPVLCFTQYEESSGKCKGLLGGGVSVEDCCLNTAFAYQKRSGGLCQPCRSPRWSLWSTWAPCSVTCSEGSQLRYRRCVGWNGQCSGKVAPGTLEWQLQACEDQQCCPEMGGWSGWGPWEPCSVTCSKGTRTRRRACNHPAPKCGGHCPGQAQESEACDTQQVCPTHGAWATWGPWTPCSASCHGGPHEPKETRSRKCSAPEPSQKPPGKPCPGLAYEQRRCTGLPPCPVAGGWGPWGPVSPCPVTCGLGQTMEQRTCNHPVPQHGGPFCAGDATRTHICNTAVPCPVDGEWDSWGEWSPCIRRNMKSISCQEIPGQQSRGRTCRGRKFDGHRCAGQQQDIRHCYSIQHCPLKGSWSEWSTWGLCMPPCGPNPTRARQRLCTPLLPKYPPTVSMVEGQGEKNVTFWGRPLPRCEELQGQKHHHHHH
T3 sequence (P27918 other isoform, or with tags, fused parts or gaps mutant limits assumed): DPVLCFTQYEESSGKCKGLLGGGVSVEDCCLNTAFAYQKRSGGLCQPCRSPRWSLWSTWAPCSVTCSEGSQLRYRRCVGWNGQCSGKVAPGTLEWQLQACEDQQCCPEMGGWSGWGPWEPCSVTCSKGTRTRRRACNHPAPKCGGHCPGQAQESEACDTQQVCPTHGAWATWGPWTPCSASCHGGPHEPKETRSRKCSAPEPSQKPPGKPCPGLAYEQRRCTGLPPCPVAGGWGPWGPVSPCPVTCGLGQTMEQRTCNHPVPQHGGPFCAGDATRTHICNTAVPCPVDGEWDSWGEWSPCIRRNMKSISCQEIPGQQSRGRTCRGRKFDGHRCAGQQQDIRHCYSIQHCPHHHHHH

Row | Binder | binding result [1] | binding result [2] | LPS-induced AP complement activation in 50% normal human serum (C3 deposition, OD450) (human properdin) | acidified autologous serum lysis of PNH patient RBCs (Ham's test) (human properdin) | concentration sufficient to inhibit LPS-induced human AP complement activation in 50% NHS (C3 deposition) (human properdin) | lysis of human RBCs by 50% human serum with fH 19-20 and anti-DAF mAb (human properdin) | binding result [3] | binding result [4] | binding result [5]
1 | B1 | no binding | no binding | 5 µg/mL | ≥ 8 µg/ml | 5 µg/mL | 5 µg/mL | – | – | –
2 | B2 | – | – | – | – | 10 µg/mL | – | – | – | –
3 | B3 | – | – | – | 20 µg/ml | 10 µg/mL | – | – | – | –
4 | B4 | – | – | – | – | 10 µg/mL | – | – | – | –
5 | B5 | no binding | – | 5 µg/mL | ≥ 8 µg/ml | – | 5 µg/mL | no binding | no binding | no binding
6 | B6 | – | – | 5 µg/mL | – | – | 5 µg/mL | – | – | –
